Measured values published in IntAct's records for PubMed 10531343.

B1: Synaptotagmin-3 (Mus musculus), O35681 (parent)
chain: MSGDYEDDLCRRALILVSDLCARVRDADTNDRCQEFNELRIRGYPRGPDADISVSLLSVIVTFCGIVLLGVSLFVSWKLCWVPWRDKGGSAVGGGPLRKDLAPGVGLAGLVGGGGHHLGASLGGHPLLGGPHHHGHTAHHPPFAELLEPGGLGGSEPPEPSYLDMDSYPEAAVASVVAAGVKPSQTSPELPSEGGTGSGLLLLPPSGGGLPSAQSHQQVTSLAPTTRYPALPRPLTQQTLTTQADPSTEERPPALPLPLPGGEEKAKLIGQIKPELYQGTGPGGRRGGGSGEAGAPCGRISFALRYLYGSDHLVVRILQALDLPAKDSNGFSDPYVKIYLLPDRKKKFQTKVHRKTLNPIFNETFQFSVPLAELAQRKLHFSVYDFDRFSRHDLIGQVVLDNLLELAEQPPDRPLWRDILEGGSEKADLGELNFSLCYLPTAGRLTVTIIKASNLKAMDLTGFSDPYVKASLISEGRRLKKRKTSIKKNTLNPTYNEALVFDVAPESVENVGLSIAVVDYDCIGHNEVIGVCRVGPEAADPHGREHWAEMLANPRKPVEHWHQLVEEKTLSSFTKGGKGLSEKENSE
partner: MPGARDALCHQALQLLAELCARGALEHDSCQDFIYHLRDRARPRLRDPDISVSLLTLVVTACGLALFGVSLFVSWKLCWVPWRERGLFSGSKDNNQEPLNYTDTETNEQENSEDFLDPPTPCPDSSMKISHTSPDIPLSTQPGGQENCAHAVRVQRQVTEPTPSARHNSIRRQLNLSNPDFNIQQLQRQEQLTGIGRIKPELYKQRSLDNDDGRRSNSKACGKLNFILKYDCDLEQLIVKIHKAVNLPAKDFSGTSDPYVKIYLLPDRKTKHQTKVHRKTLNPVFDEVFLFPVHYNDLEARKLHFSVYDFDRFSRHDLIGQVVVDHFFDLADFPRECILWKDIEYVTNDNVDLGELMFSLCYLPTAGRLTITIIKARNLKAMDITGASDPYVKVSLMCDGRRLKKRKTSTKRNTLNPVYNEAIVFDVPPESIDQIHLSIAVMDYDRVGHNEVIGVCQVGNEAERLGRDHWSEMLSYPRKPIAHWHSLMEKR
B2: Synaptotagmin-3 (Mus musculus), O35681 (parent)
chain: B1 chain
partner: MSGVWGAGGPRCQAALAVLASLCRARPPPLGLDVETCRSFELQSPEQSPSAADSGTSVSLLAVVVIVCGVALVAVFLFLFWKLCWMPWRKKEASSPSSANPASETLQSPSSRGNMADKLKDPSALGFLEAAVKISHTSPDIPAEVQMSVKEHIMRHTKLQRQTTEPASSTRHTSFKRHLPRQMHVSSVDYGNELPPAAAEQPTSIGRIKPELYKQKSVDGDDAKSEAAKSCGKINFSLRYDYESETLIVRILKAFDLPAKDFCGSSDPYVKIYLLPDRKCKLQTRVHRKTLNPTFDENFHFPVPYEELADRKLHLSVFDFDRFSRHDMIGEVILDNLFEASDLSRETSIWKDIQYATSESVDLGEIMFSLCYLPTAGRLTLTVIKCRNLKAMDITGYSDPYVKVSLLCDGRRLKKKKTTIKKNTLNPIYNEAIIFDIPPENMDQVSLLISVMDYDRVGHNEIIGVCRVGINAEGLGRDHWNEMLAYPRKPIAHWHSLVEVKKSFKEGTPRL
B3: Synaptotagmin-10 (Mus musculus), Q9R0N4 (parent)
chain: MSFRKEDGVSSLCQKALHIITELCFAGQVEWDKCSGIFPADRSGQGGGGTDISVSLLAVVVSFCGLALLVVSLFVFWKLCWPCWKSKLVAPNLSVLPQSISSAPTEVFETEEKKEVEENEKPAPKAIEPAIKISHTSPDIPAEVQTALKEHLIKHARVQRQTTEPTSSSRHNSFRRHLPRQMNVSSVDFSVGTEPILQRGETRTSIGRIKPELYKQKSVDSEGNRKDDVKTCGKLNFALQYDYENELLVVKIIKALDLPAKDFTGTSDPYVKIYLLPDRKKKFQTRVHRKTLNPLFDELFQFPVVYDQLSNRKLHFSIYDFDRFSRHDMIGEVILDNLFEVSDLSREATVWKDIHCATTESIDLGEIMFSLCYLPTAGRMTLTVIKCRNLKAMDITGSSDPYVKVSLMCEGRRLKKRKTTTKKNTLNPVYNEAIIFDIPPENVDQVSLCIAVMDYDRVGHNEVIGVCRTGLDAEGLGRDHWNEMLAYHRKPITHWHPLLELPGRATSFDSQGSCSSPRPPSTP
partner: B1 chain
B4: Synaptotagmin-9 (Mus musculus), Q9R0N9 (parent)
chain: B1 partner
partner: B2 partner
B5: Synaptotagmin-6 (Mus musculus), Q9R0N8 (parent)
chain: B2 partner
partner: B3 chain
B6: Synaptotagmin-10 (Mus musculus), Q9R0N4 (parent)
chain: B3 chain
partner: B1 partner
B7: Synaptotagmin-10 (Mus musculus), Q9R0N4 (parent)
chain: B3 chain
partner: B2 partner
B8: Synaptotagmin-9 (Mus musculus), Q9R0N9 (parent)
chain: B1 partner
partner: B1 chain
B9: Synaptotagmin-6 (Mus musculus), Q9R0N8 (parent)
chain: B2 partner
partner: B1 partner
B10: Synaptotagmin-9 (Mus musculus), Q9R0N9 (parent)
chain: B1 partner
partner: B3 chain
B11: Synaptotagmin-3 (Mus musculus), O35681 (parent)
chain: B1 chain
partner: B3 chain
B12: Synaptotagmin-6 (Mus musculus), Q9R0N8 (parent)
chain: B2 partner
partner: B1 chain

Variants of: B1
Conditions: with syt9_mouse Syt9, Q9R0N9

| Variant | effect of a mutation on the interaction |
| --- | --- |
| C10A | decreasing interaction |

Variants of: B2
Conditions: with syt6_mouse Syt6, Q9R0N8

| Variant | effect of a mutation on the interaction |
| --- | --- |
| C10A | decreasing interaction |

Variants of: B3
Conditions: with syt3_mouse Syt3, O35681

| Variant | effect of a mutation on the interaction |
| --- | --- |
| C13A | decreasing interaction |

Variants of: B4
Conditions: with syt6_mouse Syt6, Q9R0N8

| Variant | effect of a mutation on the interaction |
| --- | --- |
| C9A | decreasing interaction |

Variants of: B5
Conditions: with syt10_mouse Syt10, Q9R0N4

| Variant | effect of a mutation on the interaction |
| --- | --- |
| C12A | decreasing interaction |

Variants of: B6
Conditions: with syt9_mouse Syt9, Q9R0N9

| Variant | effect of a mutation on the interaction |
| --- | --- |
| C13A | decreasing interaction |

Variants of: B7
Conditions: with syt6_mouse Syt6, Q9R0N8

| Variant | effect of a mutation on the interaction |
| --- | --- |
| C13A | decreasing interaction |

Variants of: B8
Conditions: with syt3_mouse Syt3, O35681

| Variant | effect of a mutation on the interaction |
| --- | --- |
| C9A | decreasing interaction |

Variants of: B9
Conditions: with syt9_mouse Syt9, Q9R0N9

| Variant | effect of a mutation on the interaction |
| --- | --- |
| C12A | decreasing interaction |

Variants of: B10
Conditions: with syt10_mouse Syt10, Q9R0N4

| Variant | effect of a mutation on the interaction |
| --- | --- |
| C9A | decreasing interaction |

Variants of: B11
Conditions: with syt10_mouse Syt10, Q9R0N4

| Variant | effect of a mutation on the interaction |
| --- | --- |
| C10A | decreasing interaction |

Variants of: B12
Conditions: with syt3_mouse Syt3, O35681

| Variant | effect of a mutation on the interaction |
| --- | --- |
| C12A | decreasing interaction |
